What was measured:
[1] = biological target: RSV F on RSV subtype A virus (RSV-A2) (Respiratory Syncytial Virus, subtype A, …, UniProt P03420 26-574); assay: cell-based or functional assay
[2] = biological target: RSV prefusion F (preF), DS-Cav1 stabilized trimer, subtype A (Respiratory Syncytial Virus, subtype A, UniProt P03420 26-513); assay: BLI, apparent IgG KD (Table 9A)
[3] = biological target: RSV postfusion F (postF), F ΔFP trimer, subtype A (Respiratory Syncytial Virus, subtype A, UniProt P03420 26-513); assay: BLI, IgG (Table 9A)
[4] = biological target: RSV prefusion F (preF), DS-Cav1 (Respiratory Syncytial Virus, UniProt P03420 26-513); assay: BLI, IgG on anti-human IgG sensor, 100 nM antigen, 1:1 fit
[5] = biological target: RSV F on RSV-A2 virus (Respiratory Syncytial Virus (RSV-A2), UniProt P03420 26-574); assay: cell-based or functional assay
[6] = biological target: RSV postfusion F (postF), F ΔFP (Respiratory Syncytial Virus, UniProt P03420 26-513); assay: BLI, IgG on anti-human IgG sensor
[7] = biological target: RSV postfusion F (postF), F ΔFP (Respiratory syncytial virus, UniProt P03420 26-513); assay: BLI, IgG on anti-human IgG sensor
[8] = biological target: RSV prefusion F (preF), DS-Cav1 (Respiratory syncytial virus, UniProt P03420 26-513); assay: BLI, IgG on anti-human IgG sensor, 100 nM antigen
[9] = biological target: RSV F on RSV-A2 virus (Respiratory syncytial virus, RSV-A2, UniProt P03420 26-574); assay: cell-based or functional assay

Row | Binder | Neutralization - RSV A2 IC50 (pM) [1] | neut IC50 (ug/ml) subtype A (wright) [1] | Kd [2] | binding result [3] | Kd [4] | Neutralization IC50 (RSV subtype A) [5] | binding result [6] | binding result [7] | Kd [8] | Neutralization IC50 (RSV subtype A) [9]
1 | ADI-41208 (antibody, V domains shown) VH: QVQLVESGGDLVKPGGSLRLSCAASGFTLSGHYMSWIRQPPGKGLEWVSSISGGSTYTNYADSVKGRFTISRDNAENSLYLQMNSLRAEDTAVYYCARLAYSDYGPFYFDLWGRGTLVTVSS VL: QSVLTQPPSVSGAPGQRVTISCTGSSSNIGAGYDVHWYQQLTGTAPKLLIFDNNNRPSGVPDRFSGSKSGTSASLAITGLQAEDEADYYCQSYDSRLSAPYVFGTGTKLTVL | 310 pM | 0.077 µg/mL | 0.48 nM | no binding |  |  |  |  |  | 
2 | ADI-41256 (antibody, V domains shown, also called Ab 578; Antibody Number 578) VH: QVQLVQSGAEVKSPGSSATVSCKASGGTFGSYGISWVRQAPGQGLEWIGAIMPMFGTTNYAQKFQGRVTMTADESTSTVYMDVSSLRPDDTAVYYCVRDVFYDILTGYYDADYYHHYMDVWGKGTTVTVSS VL: DIVMTQSPLSLPVTLGQPASISCRSGQSLVHSDGNTYLNWFQQRPGQSPRRLIYKVSNRGSGVPDRFSGSGSGTDFTLKISRVEAEDVGVYFCMQGTHWPRTFGQGTKVDIK | 85.8 pM | 0.019 µg/mL | 0.35 nM | no binding |  |  |  |  |  | 
3 | ADI-41259 (antibody, V domains shown) VH: QVQLVESGGRLVKPGGSLRLSCAASGFTFSDFYMSWIRQAPGKGLEWVSYISSSGDDPNYADSVKGRFTISRDNSKNSLYLQMNSLRAEDTAVYYCARDEVGWNNLDYYFGMDVWGQGTTVTVSS VL: DIVMTQSPLSLPVTLGQPASISCRSSQSLVHSDGNTYLSWFHQRPGQSPRRLIYKVSNRDSGVPNRFSGGGSGTDFTLKISRVEAEDVGFFYCMQGTHWQKTFGQGTKVEIK | 122 pM | 0.015 µg/mL | 0.34 nM | no binding |  |  |  |  |  | 
4 | ADI-36672 (antibody, V domains shown) VH: EVQLVESGGGLVKPGGSLRLSCAASGFAFNNYYMNWVRQAPGKGLEWVSSISSASTYTDYADSVKGRFTISRDNAKNSLYLHLNSLRAEDTAVYYCARDYYGSGNYYNPKPLDVWGQGTTVTVSS VL: QPVLTQPPSVSGAPGQRVTISCTGSSSNIGAGYDVHWYRQFPGTAPELLIYGNTNRPSGVPDRFSGSKSGTSASLAITGLQAEDEADYYCQSYDSSLKGVFGGGTKLTVL | 207 pM | 0.018 µg/mL | 0.7 nM | no binding |  |  |  |  |  | 
5 | ADI-41457 (antibody, V domains shown, also called Ab 741; Antibody Number 741) VH: EVQLVESGGGLVRPGGSLRVSCAASGFTFIRYDMHWVRQAPGKGLEWVSGIGTAGDTYYAASVQGRFTISRENAKNSLYLQMSNLRPGDTAVYYCAGSMAATGIDQWGQGTLVTVSS VL: EIVMTQSPLTLPVTPGEPASISCRSSQSLLHSNGFTYLDWFLQKPGQSPQLLIFLGSNRASGVPDRFSGSGSGTDFTLKISRVEAEDVGIYYCMQALQTPYTFGQGTKVEIK |  |  |  |  | 3.33 nM | > 25 µg/mL | no binding |  |  | 
6 | ADI-41203 (antibody, V domains shown) VH: QVQLVQSGAEVRKPGESLKISCKASGYRFTNYWIGWVRQMPGKGLEWMGVIYPGDSDTRYSPSFQGQVTMSADKSTNTAYLQWSSLKASDTAIYYCVSLYSDYDYGALDYWGQGTLVTVSS VL: EIVMTQSPATLSVSPGERATLSCRASENVGRNLAWYQQKPGQAPRLLIYGASIRATGILARFSGSGSGTEYTLTISSLQSEDFAVYYCQQYHDWPSFTFGPGTKVDIK | 23.9 pM | 0.006 µg/mL | 0.4 nM | no binding |  |  |  |  |  | 
7 | ADI-41302 (antibody, V domains shown) VH: QVQLVESGGGVVQPGRSLRLSCAASGFTFSSYAMQWVRQAPGKGLEWVAVMTNDGDDKYYADSVRGRFTISRDNSKNTLYLQMNNLRPEDTAVYYCARDLFEWWELLGYCYAMDVWGQGTTVTVSS VL: QSVLTQPPSASGSPGQSVTISCTGTSSDVGAYNYVSWYQQHPGKAPKLIIYEVYKRPSGVPDRFFGSKSGNTASLTVSGLQAEDEADYYCSSYAGSNTLGVFGGGTKVTVL | 133 pM | 0.006 µg/mL | 0.65 nM | no binding |  |  |  |  |  | 
8 | ADI-41476 (antibody, V domains shown) VH: EVQLLESGGGLVQPGGSLRLSCATSGFRFTRYWMHWVRQAPGKGLEWVARINFDGTTTNYADSVKGRFTVSRDNAKNTLYLQINSLRAEDTAVYFCARDQTFLEWLPFESWGQGTLVTVSS VL: QTVVTQEPSFSVSPGGTVTLTCGLTSGSVSTSYYPSWYQQTPGQAPRTLIYNTKTRFSGVPDRFSGSILGNKAALTITGAQADDESDYYCVLYMSGGMVFGGGTKLTVL |  |  |  |  | 3.86 nM | > 25 µg/mL | no binding |  |  | 
9 | ADI-41609 (antibody, V domains shown) VH: QVQLVESGAEVKKPGASVKVSCKASGYSFTSYYMHWVRQAPGQGLEWMGVISTNGGTASYSQNFRGRVTLTRDTSTSTAYMELSSLTSEDTAVYYCVREGYCNGGSCSYFDSWGQGTLVTVSS VL: QSVLTQPPSVSGAPGQRVSISCTGSSSNIGAGYDVHWYQQLPGTAPKVLIYGNNYRPSGVPDRFSGSKSGTSASLAITGLQTEDEADYYCQSYDSRLSVVFGGGTKLTVL |  |  |  |  |  |  |  | no binding (tested: 100 nM antigen) | 29.1 nM | > 25 µg/mL
10 | ADI-41274 (antibody, V domains shown, also called Ab 592; Antibody Number 592) VH: EVQLVESGGGLVKPGGSLRLSCAASGFSFSSYAMNWVRQAPGKGLQWVSSISAGSSYIDYADSVKGRFTISRDNAENSLFLQMNSLRVEDTAVYYCARVGSYTHGYEFDYWGQGTLVTVSS VL: QPVLTQPPSVSGAPGQRVTISCTGSNSNIGAGYDVHWYQQLPGTAPKLLIYASTIRPSGVPDRFSGSKSGTSASLAITGLQAEDEADYYCQSYDRNLSVVFGGGTKVTVL | 26.6 pM | 0.109 µg/mL | 0.48 nM | no binding |  |  |  |  |  | 
11 | ADI-41601 (antibody, V domains shown, also called Ab 875; Antibody Number 875) VH: EVQLLESGGGLVKPGGSLRLSCAGSGFRFSDYYMTWIRQAPGKGLEWVSYISSSSTYTYYTDSVKGRFTVSRDNAKNSLYLQMNTLRAEDTAIYYCAISNRYDSRTFYYDYWGQGTLVTVSS VL: QSVLTQPPSVSGAPGQRVIISCTGSSSNIGAGYDVHWYQQFPGTAPKLLIYGNNNRPSGVPERFSGSKSGTSASLAITGLQADDEADYYCQSYDSLSEVVFGGGTKVTVL |  |  |  |  |  |  |  | no binding (tested: 100 nM antigen) | 0.503 nM | > 25 µg/mL
12 | ADI-41191 (antibody, V domains shown) VH: QVQLVQSGAEVKRPGASVKVSCKASGYIFSHYGISWVRQAPGQGLEWMAWISAYNGNTNYAQKLQGRVTVTTDTSTSTAYMELRSLRSDDTAVYYCAREPPSLSAAATLDYWGQGTLVTVSS VL: EIVMTQSPLSLPVTLGQPASISCRSNQSLVYSDGNIYLSWFQQRPGQSPRRLIYKVSNRDSGVPDRFSGSGSGTDFTLKISRVEAEDVAVYYCMQVTHWPHEFGQGTKLEIK | 154 pM | 0.071 µg/mL | 0.5 nM | no binding |  |  |  |  |  | 
13 | ADI-36676 (antibody, V domains shown, also called Ab 832; Antibody Number 832) VH: EVQLLESGGGVVQPGRSLRLSCAASGFSFRNYDMHWVRQAPGKGLEWVAIISYDGSNKYADSVKGRFTISRDTSKNTLYLQMNSLRVEDTAVYYCARADSSGYYKGSEYFQHWGQGTLVTVSS VL: SYELTQLPSVSVAPGQTARITCGGNNIGTKSVQWYQHKPGQAPVLVVYDDSDRPSDIPERFSGSNSGNTATLTISRVEAGDEADYYCQVWDSSSDHYVFGTGTKLTVL | 130 pM | 0.006 µg/mL | 0.28 nM | no binding |  |  |  |  |  | 
14 | ADI-36677 (antibody, V domains shown) VH: QVQLVQSGGGLVQPGGSLRLSCAASGFTFSSYEMNWVRQAPGKGLEWISYISSSGDTKYYADSVKGRFTVSRDNAKYSLYLQMDSLRAEDTAVYYCASLYDSRGYYWVFDYWGQGTLVTVSS VL: DIVMTQSPSSLSASVGDRVTITCQASQDISTYLNWYQHKPGKAPNLLIYDASNLEPGVPSRFSGSGSGTDFTFTISSLQPEDIATYYCLQHDNLPPTFGQGTKVDIK | 144 pM | 0.019 µg/mL | 0.54 nM | no binding |  |  |  |  |  | 
15 | ADI-36669 (antibody, V domains shown) VH: EVQLVQSGAEVKKPGASVRVYCKASGYTFTTYYIHWVRQAPGQGLEWMGMINPSGGTTSYAQKFQGRLTMTGDTSTSTVYMELNYLRSEDTAVYYCTRDFIYFYGSGDGFDYWGQGTLVTVSS VL: EIVMTQSPSAMSASVGDRVTITCRASQGISNYLAWFQQKPGKVPKRLIYAASSLQSGVPSRFSGSGSGTEFTLTITSLQPEDFATYYCLQHNSYPFTFGPGTKVEIK | 111 pM | 0.025 µg/mL | 1.1 nM | no binding |  |  |  |  |  | 
16 | ADI-41489 (antibody, V domains shown, also called Ab 770; Antibody Number 770) VH: EVQLVESGGGVVQPGRSLRLSCAASGFNFHNYAFHWVRQAPGKGLDWVAVTSYDGSSAFYADSVKGRFTISRDNSKKILYLQMTSLRAEDTALYYCARGSSSWSGDYFDYWGQGILVTVSS VL: DIVMTQSPVTLSVSPGERATLSCRASQSVGSNLAWYQQKHGQTPRLLIYDASTRATSIPARFSGSGSGTEFTLTISSLQSEDFAVYYCQQYNKWPSYTFGQGTKVEIK |  |  |  |  | 88 nM | > 25 µg/mL | no binding |  |  | 

Source: US20260258115A1 (MAPP BIOPHARMACEUTICAL, published 2026)
